Measured values as given in US20040018529A1, “Functional cloning of genes encoding proteins/enzymes involved in proteolytic cleavage” (priority 1999, published 2004).
Peptide text beside a SMILES is read from it. * marks the point of attachment. Cbz = O=C(OCc1ccccc1)*; CH2F = FC*

Legend:
[1] = molecular target: modified caspase-3 containing the β-secretase cleavage site of APP of the Swedish version (expressed from plasmid pCBC1) (human); assay: cell-based or functional assay
[2] = system: 293T cells; assay: Apoptosis assay by visual inspection of transfected cells; type: cell-based, Human
Description: Apoptosis assays 293T cells were seeded onto 60 mm dishes at a density of 1.5×10^6 cells and, the next day, were transiently transfected with 2.5 μg plasmid DNA mixed with 15 μl lipofectamin reagent (Life Technologies, Grand Island, N.Y.). Twenty-four or 48 h after transfection, cell death was analyzed by one of the following methods. For the first assay, apoptosis was quantitated by visual inspection of cells. Cells with a shrunken, rounded, detached or blebbed appearance were scored as apoptotic. Usually 3 or more random fields were photographed and counted, and each field contained at least several hundred cells. In the case of co-transfection with green fluorescent protein (GFP)-expressing plasmid, cells were examined with an inverted fluorescent microscope, and only green cells with apoptotic features were counted. The second apoptotic assay used was the detection of nucleosomal ladder in apoptotic cells using ApoAlert LM-PCR ladder assay kit from Clontech. The procedure recommended by Clontech was followed.

[3] = system: modified caspase-3; assay: Western blot analysis of processing of the modified caspase-3; type: cell-based, Human; details: 293T cells, co-transfection with pCBC1, compared with the control
Source text: Western blot analysis Cells were collected in PBS and immediately lysed by the addition of an equal volume of 2×SDS loading buffer. After boiling and centrifugation, supernatants containing equal amount of proteins were loaded onto 14% SDS-PAGE gels. The proteins were resolved and transferred to a nylon membrane, and probed with antibodies against human caspase-3 (Santa Cruz Biotech, Santa Cruz, Calif.).

[4] = system: β-secretase; assay: β-NTF assay (ELISA of medium of transfected 293T cells); type: cell-based, Human; details: co-transfection with the APP expression plasmid, 48 h
Description: β-NTF assay 293T cells were seeded onto 60 mm dishes at a density of 1.5×10^6 cells and, the next day, were transiently transfected with 2.5 μg plasmid DNA mixed with 15 μl lipofectamin reagent (Life Technologies, Grand Island, N.Y.). In the case of transfection with pAPPsw plasmid, 0.5 μg pAPPsw was mixed with 2.0 μg carrier plasmid (unrelated plasmid). Twenty-four or 48 h after transfection, medium was collected and determined for […] by ELISA method as described [Liu, 2000]

[5] = system: caspase-3; assay: Caspase-3 activity assay (ApoAlert CPP32/Caspase-3 Fluorescent Assay kit); type: cell-based, Human; details: 293T cells, co-transfection with pCBC1, compared with controls
Source text: The protease activity of the caspase is also directly monitored in the cell extracts prepared as above. The ApoAlert® Caspase-3 assay kit, available commercially from Clontech, allows convenient fluorometric or colorimetric detection and assay of caspase-3. For example, the fluorescent kit detects the emission shift of 7-amino-4-trifluoromethyl coumarin (AFC). The AFC-substrate conjugate, DEVD-AFC, usually emits blue light (λmax=400 nm). However, upon proteolytic cleavage of the substrate by Caspase-3, free AFC fluoresces yellow-green (λmax=505 nm). Thus monitoring of emission at 505 nm in the cell extract, in relation to the uninduced control extract, allows determination of caspase activity. The activity can also be quantitated accurately and reproducibly using a standard curve established with free AFC. As described above, if there is endogenous expression of enzyme X in these cells, the caspase activity is generated in cells transfected only with pCTC1 (+) but not with pCTC1 (−).
Caspase-3 activity assay Caspase-3 activity was determined following the instructions of ApoAlert CPP32/Caspase-3 Fluorescent Assay kit (Clontech).

endogenous β-secretase activity of human embryonic kidney 293T cells (enzyme)
caspase-3 activity in transfected 293T cells (caspase-3 fluorescent assay), over mock-transfected cells, 24 and 48 h [1]: 10 fold

COC(=O)C[C@H](NC(=O)[C@H](C)NC(=O)[C@@H](NC(=O)OCc1ccccc1)C(C)C)C(=O)CF [Z-VAD.fmk, reference compound] (Cbz-Val-Ala-Asp(OMe)-CH2F)
cell death caused by transfection of pCBC1 plasmids ([2]; 10 μM inhibitor added immediately after DNA transfection): significantly prevented cell death

B1: BACE2: BACE2 expression plasmid; BACE2 competes in vivo with β-secretase for β-site APP cleavage (protein, UniProt Q9Y5Z0 63-518, looked up)
Beta-secretase 2: ALEPALASPAGAANFLAMVDNLQGDSGRGYYLEMLIGTPPQKLQILVDTGSSNFAVAGTPHSYIDTYFDTERSSTYRSKGFDVTVKYTQGSWTGFVGEDLVTIPKGFNTSFLVNIATIFESENFFLPGIKWNGILGLAYATLAKPSSSLETFFDSLVTQANIPNVFSMQMCGAGLPVAGSGTNGGSLVLGGIEPSLYKGDIWYTPIKEEWYYQIEILKLEIGGQSLNLDCREYNADKAIVDSGTTLLRLPQKVFDAVVEAVARASLIPEFSDGFWTGSQLACWTNSETPWSYFPKISIYLRDENSSRSFRITILPQLYIQPMMGAGLNYECYRFGISPSTNALVIGATVMEGFYVIFDRAQKRVGFAASPCAEIAGAAVSEISGPFSTEDVASNCVPAQSLSEPILWIVSYALMSVCGAILLVLIVLLLLPFRCQRRPRDPEVVNDESSLVRHRWK
number of apoptotic cells / cell death caused by the modified caspase-3 ([2]; co-transfection with pCBC1, compared with controls): significantly reduced the number of apoptotic cells | processed caspase-3 fragment (12 kDa) [3]: significantly reduced | generation of β-NTF [4]: significantly inhibited the generation of β-NTF | caspase-3 activity [5]: lower caspase-3 activity than the controls

B2: BACE2(D110A): catalytically inactive mutant of BACE2, expressed from plasmid (protein)
chain: APELAPAPFTLPLRVAAATNRVVAPTPGPGTPAERHADGLALALEPALASPAGAANFLAMVDNLQGDSGRGYYLEMLIGTPPQKLQILVATGSSNFAVAGTPHSYIDTYFDTERSSTYRSKGFDVTVKYTQGSWTGFVGEDLVTIPKGFNTSFLVNIATIFESENFFLPGIKWNGILGLAYATLAKPSSSLETFFDSLVTQANIPNVFSMQMCGAGLPVAGSGTNGGSLVLGGIEPSLYKGDIWYTPIKEEWYYQIEILKLEIGGQSLNLDCREYNADKAIVDSGTTLLRLPQKVFDAVVEAVARASLIPEFSDGFWTGSQLACWTNSETPWSYFPKISIYLRDENSSRSFRITILPQLYIQPMMGAGLNYECYRFGISPSTNALVIGATVMEGFYVIFDRAQKRVGFAASPCAEIAGAAVSEISGPFSTEDVASNCVPAQSLSEPILWIVSYALMSVCGAILLVLIVLLLLPFRCQRRPRDPEVVNDESSLVRHRWK
processed caspase-3 fragment (12 kDa) [3]: significantly reduced | generation of β-NTF [4]: significantly inhibited the generation of β-NTF | caspase-3 activity [5]: lower caspase-3 activity than the controls
